Columns and labels:
Assay in all cases: Kinase Profiling Assay
Assay type in all cases: biochemical
Settings in all cases: 100 μM
PRAK(h) = biological target: T1, PRAK(h) (Homo sapiens, UniProt Q8IW41)
T1 sequence (Q8IW41 1-473): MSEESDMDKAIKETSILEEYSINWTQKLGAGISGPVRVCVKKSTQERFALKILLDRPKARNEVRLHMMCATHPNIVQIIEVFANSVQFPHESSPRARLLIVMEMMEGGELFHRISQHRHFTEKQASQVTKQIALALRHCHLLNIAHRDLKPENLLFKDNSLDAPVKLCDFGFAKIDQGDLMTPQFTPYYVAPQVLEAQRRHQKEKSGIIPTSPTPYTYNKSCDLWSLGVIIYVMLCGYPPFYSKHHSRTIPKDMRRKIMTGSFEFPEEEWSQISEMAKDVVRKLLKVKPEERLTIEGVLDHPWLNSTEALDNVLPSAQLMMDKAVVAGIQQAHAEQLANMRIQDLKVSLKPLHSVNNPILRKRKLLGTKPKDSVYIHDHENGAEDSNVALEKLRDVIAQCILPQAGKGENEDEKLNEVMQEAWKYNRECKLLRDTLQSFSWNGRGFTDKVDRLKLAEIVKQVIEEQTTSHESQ

SAPK3(h) = biological target: T2, SAPK3(h) (Homo sapiens, UniProt P53778)
T2 sequence (P53778 1-367): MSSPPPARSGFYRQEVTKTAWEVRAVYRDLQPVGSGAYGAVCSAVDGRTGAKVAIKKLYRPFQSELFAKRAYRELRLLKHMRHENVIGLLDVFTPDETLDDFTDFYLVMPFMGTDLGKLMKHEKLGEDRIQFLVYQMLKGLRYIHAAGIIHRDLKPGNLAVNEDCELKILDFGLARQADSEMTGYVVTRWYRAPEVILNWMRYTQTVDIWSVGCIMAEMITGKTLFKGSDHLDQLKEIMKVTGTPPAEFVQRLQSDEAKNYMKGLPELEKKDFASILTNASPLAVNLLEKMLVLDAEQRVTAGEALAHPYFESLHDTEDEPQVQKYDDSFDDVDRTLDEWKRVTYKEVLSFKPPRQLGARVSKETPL

PDGFRβ(h) = PDGFRβ(h) (Homo sapiens, UniProt P09619)
PKCε(h) = biological target: T3, PKCε(h) (Homo sapiens, UniProt Q02156)
T3 sequence (Q02156 1-737): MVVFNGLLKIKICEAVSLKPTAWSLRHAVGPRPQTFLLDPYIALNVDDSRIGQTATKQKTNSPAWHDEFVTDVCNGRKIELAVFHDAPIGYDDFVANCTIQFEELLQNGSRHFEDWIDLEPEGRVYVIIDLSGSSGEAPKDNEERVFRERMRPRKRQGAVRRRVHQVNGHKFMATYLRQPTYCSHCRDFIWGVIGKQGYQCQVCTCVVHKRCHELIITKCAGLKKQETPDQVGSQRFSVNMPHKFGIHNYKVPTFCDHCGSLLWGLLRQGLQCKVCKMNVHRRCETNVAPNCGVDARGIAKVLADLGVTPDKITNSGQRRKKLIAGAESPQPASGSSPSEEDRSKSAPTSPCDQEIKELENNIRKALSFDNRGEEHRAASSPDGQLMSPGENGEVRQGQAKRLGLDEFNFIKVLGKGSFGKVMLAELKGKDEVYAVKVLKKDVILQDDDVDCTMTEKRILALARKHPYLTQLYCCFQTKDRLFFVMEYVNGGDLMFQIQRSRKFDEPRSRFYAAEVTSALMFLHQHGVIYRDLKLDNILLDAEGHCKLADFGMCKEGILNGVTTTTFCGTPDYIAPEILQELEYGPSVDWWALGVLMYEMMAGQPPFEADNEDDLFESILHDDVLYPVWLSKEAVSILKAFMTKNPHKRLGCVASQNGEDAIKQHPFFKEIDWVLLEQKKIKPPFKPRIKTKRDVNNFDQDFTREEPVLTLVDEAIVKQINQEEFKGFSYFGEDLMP

FGFR1(h) = FGFR1(h) (Homo sapiens, UniProt P11362)
GCK(h) = biological target: T4, GCK(h) (Homo sapiens, UniProt Q12851)
T4 sequence (Q12851 1-820): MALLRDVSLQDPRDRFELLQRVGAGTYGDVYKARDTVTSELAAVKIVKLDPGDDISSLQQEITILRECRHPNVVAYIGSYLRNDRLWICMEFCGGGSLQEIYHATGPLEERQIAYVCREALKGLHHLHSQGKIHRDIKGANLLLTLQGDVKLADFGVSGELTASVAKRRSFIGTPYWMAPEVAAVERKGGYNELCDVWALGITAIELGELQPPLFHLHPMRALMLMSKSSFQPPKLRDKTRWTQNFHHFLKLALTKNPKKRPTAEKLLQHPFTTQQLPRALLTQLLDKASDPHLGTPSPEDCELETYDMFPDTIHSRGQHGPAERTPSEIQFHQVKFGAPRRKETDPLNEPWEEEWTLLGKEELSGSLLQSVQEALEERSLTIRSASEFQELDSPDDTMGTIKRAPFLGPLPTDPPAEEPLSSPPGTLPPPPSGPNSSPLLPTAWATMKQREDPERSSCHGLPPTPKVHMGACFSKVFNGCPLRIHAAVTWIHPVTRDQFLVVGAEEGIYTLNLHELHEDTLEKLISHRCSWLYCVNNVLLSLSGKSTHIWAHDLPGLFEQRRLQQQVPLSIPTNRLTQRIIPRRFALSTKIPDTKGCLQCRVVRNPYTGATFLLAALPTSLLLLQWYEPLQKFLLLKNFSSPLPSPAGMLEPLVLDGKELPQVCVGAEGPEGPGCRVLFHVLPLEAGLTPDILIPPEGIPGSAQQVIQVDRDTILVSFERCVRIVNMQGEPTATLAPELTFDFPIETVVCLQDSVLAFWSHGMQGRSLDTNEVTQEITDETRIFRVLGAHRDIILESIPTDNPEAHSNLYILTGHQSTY

Sequence of PDGFRβ(h) (P09619 33-1106): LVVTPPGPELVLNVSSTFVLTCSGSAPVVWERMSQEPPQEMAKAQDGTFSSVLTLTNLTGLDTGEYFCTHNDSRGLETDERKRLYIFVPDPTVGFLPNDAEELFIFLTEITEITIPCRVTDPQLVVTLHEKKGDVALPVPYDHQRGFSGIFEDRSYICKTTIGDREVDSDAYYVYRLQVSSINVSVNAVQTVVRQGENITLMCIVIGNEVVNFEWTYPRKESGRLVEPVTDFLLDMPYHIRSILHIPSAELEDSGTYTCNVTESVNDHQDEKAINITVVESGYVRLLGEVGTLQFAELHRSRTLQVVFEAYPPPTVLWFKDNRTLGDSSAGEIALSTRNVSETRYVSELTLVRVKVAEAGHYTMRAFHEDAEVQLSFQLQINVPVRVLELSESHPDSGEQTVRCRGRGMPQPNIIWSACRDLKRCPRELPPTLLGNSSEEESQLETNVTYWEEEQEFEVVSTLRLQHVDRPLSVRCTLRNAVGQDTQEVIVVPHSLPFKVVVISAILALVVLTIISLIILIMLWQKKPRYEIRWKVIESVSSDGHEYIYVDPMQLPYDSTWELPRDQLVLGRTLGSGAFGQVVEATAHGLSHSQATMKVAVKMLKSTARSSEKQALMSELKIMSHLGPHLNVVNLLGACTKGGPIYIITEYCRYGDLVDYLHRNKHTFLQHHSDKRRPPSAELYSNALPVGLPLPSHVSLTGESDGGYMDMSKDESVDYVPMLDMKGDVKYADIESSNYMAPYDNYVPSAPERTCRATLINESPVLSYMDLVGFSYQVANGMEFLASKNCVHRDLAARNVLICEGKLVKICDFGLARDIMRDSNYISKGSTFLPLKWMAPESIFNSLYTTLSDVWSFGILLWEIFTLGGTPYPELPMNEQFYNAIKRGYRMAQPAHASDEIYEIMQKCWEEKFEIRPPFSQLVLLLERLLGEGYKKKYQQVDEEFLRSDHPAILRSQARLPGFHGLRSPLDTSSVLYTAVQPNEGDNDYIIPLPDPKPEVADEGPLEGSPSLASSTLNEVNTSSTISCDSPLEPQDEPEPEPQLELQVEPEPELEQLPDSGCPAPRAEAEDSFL
Sequence of FGFR1(h) (P11362 22-822): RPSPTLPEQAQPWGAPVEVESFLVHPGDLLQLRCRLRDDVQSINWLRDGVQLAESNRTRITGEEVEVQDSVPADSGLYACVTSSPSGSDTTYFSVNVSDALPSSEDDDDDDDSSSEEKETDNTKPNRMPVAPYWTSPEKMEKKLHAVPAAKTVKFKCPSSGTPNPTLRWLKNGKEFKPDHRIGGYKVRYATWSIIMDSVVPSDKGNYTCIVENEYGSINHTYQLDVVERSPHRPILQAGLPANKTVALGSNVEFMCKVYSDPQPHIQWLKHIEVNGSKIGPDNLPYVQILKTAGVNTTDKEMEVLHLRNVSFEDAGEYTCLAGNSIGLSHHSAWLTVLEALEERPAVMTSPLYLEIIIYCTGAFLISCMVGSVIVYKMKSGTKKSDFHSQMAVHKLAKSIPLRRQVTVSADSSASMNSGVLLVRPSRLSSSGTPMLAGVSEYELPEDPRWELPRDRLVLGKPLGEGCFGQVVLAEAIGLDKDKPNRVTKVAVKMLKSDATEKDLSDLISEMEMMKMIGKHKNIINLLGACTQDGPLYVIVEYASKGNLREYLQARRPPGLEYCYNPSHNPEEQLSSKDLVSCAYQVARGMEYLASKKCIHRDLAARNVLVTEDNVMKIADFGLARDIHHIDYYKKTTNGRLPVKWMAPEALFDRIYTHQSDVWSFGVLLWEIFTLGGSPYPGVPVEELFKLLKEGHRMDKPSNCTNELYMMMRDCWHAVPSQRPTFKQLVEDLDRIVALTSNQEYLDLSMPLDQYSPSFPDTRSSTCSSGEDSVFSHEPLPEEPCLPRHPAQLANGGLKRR

Sequence | % activity (PRAK(h)) [%] | % activity (SAPK3(h)) [%] | % activity (PDGFRβ(h)) [%] | % activity (PKCε(h)) [%] | % activity (FGFR1(h)) [%] | % activity (GCK(h)) [%]
FAKLAARLYRKALARQLGVAA [MMI-0300] | 128 | 84 | 81 | 79 | 55 | 70
KAFAKLAARLYRKALARQLGVAA [MMI-0400] | 118 | 79 | 53 | 59 | 59 | 66
YARAAARQARAKALNRQLGVA [MMI-0200] |  | 97 | 137 | 98 | 97 | 99
HRRIKAWLKKIKALARQLGVAA [MMI-0500] | 95 | 24 | 40 | 23 | 18 | 30

Source: patent US20190134153A1, “IMMUNOMODULATORY EFFECT OF INHALED KINASE INHIBITOR PEPTIDES IN LUNG” (MOERAE MATRIX, INC., priority 2017, published 2019)
